# Laboratory results from article PMC5198506, “Mechanistic differences between HIV-1 and SIV nucleocapsid proteins and cross-species HIV-1 genomic RNA recognition”.
# B1: SIV Psi RNA (WT) (structured_RNA)
# RNA: CCACGACGGAGUGCUCCUAUAAAGACGCGGGUCGGUACCAGACGGCGUGAGGAGCGGGAGAGGAAGAGGCCUCCGGUUGCAGGUAAGUGCAACACAAAAAAGAAAUAGCUGUCUUUUAUCCAGGAAGGGGUAAUAAGAUAGAGUGG
# B2: HIV-1 TARpolyA RNA (structured_RNA)
# RNA: GGUCUCUCUGGUUAGACCAGAUCUGAGCCUGGGAGCUCUCUGGCUAACUAGGGAACCCACUGCUUAAGCCUCAAUAAAGCUUGCCUUGAGUGCUCAAAGUAGUG
# B3: SIV TAR RNA (structured_RNA)
# RNA: AGUCGCUCUGCGGAGAGGCUGGCAGAUUGAGCCCUGGGAGGUUCUCUCCAGCACUAGCAGGUAGAGCCUGGGUGUUCCCUGCUAGACUCUCACCAGCACUUGGCCGGUGCUGGGCAGAGUGACU
# Experiments:
# SIV NC (SIVmne) [1] = assay: fluorescence anisotropy salt titration; conditions: FA: 20 mM HEPES pH 7.5, 30-750 mM NaCl, 1 mM MgCl2, 20 µM TCEP, 5 mM 2-mercaptoethanol, room temperature, 400 nM NC, 10 nM RNA (Gag: 20 nM RNA, plus 2 mM …)
# HIV-1 NC (HIV-1 NL4-3) [2] = molecular target: HIV-1 NC (HIV-1 NL4-3) (UniProt P12493); assay: fluorescence anisotropy salt titration; conditions: FA: 20 mM HEPES pH 7.5, 30-750 mM NaCl, 1 mM MgCl2, 20 µM TCEP, 5 mM 2-mercaptoethanol, room temperature, 400 nM NC, 10 nM RNA (Gag: 20 nM RNA, plus 2 mM …)
# SIV NC (SIVmne) [3] = assay: single-molecule DNA stretching; conditions: FA: 20 mM HEPES pH 7.5, 30-750 mM NaCl, 1 mM MgCl2, 20 µM TCEP, 5 mM 2-mercaptoethanol, room temperature, 400 nM NC, 10 nM RNA (Gag: 20 nM RNA, plus 2 mM …)
# HIV-1 NC (HIV-1 NL4-3) [4] = molecular target: HIV-1 NC (HIV-1 NL4-3) (UniProt P12493); assay: single-molecule DNA stretching; conditions: FA: 20 mM HEPES pH 7.5, 30-750 mM NaCl, 1 mM MgCl2, 20 µM TCEP, 5 mM 2-mercaptoethanol, room temperature, 400 nM NC, 10 nM RNA (Gag: 20 nM RNA, plus 2 mM …)
# HIV-1 NC [5] = molecular target: T1, HIV-1 NC (HIV-1 NL4-3, UniProt P12493 378-432); assay: fluorescence anisotropy salt titration; Kd(1M) extrapolated to 1 M NaCl; Zeff 3.6 ± 0.9; FA: 20 mM HEPES pH 7.5, 30-750 mM NaCl, 1 mM MgCl2, 20 µM TCEP, 5 mM 2-mercaptoethanol, room temperature, 400 nM NC, 10 nM RNA (Gag: 20 nM RNA, plus 2 mM Tris-HCl pH 7.4); stretching buffer not in material; conditions: protein: recombinant; label: 3' fluorescein (thiosemicarbazide); stem-loops
# HIV-1 NC [6] = molecular target: T1, HIV-1 NC; assay: fluorescence anisotropy salt titration; Kd(1M) extrapolated to 1 M NaCl; Zeff 2.4 ± 0.4; FA: 20 mM HEPES pH 7.5, 30-750 mM NaCl, 1 mM MgCl2, 20 µM TCEP, 5 mM 2-mercaptoethanol, room temperature, 400 nM NC, 10 nM RNA (Gag: 20 nM RNA, plus 2 mM Tris-HCl pH 7.4); stretching buffer not in material; conditions: protein: recombinant; label: 3' fluorescein (thiosemicarbazide); hairpin
# HIV-1 NC [7] = molecular target: T1, HIV-1 NC; assay: fluorescence anisotropy salt titration; Kd(1M) extrapolated to 1 M NaCl; Zeff 2.6 ± 0.4; FA: 20 mM HEPES pH 7.5, 30-750 mM NaCl, 1 mM MgCl2, 20 µM TCEP, 5 mM 2-mercaptoethanol, room temperature, 400 nM NC, 10 nM RNA (Gag: 20 nM RNA, plus 2 mM Tris-HCl pH 7.4); stretching buffer not in material; conditions: protein: recombinant; label: 3' fluorescein (thiosemicarbazide); hairpin
molecule,measurement,setting,value
AGUCGCUCUGCGGAGAGGCUGGCAGAUUGAGCCCUGGGAGGUUCUCUCCAGCACUAGCAGGUAGAGCCUGGGUGUUCCCUGCUAGACUCUCACCAGCACUUGGCCGGUGCUGGGCAGAGUGACU [SIV TAR RNA],Kd,SIV NC (SIVmne) [1],62 µM
CCACGACGGAGUGCUCCUAUAAAGACGCGGGUCGGUACCAGACGGCGUGAGGAGCGGGAGAGGAAGAGGCCUCCGGUUGCAGGUAAGUGCAACACAAAAAAGAAAUAGCUGUCUUUUAUCCAGGAAGGGGUAAUAAGAUAGAGUGG [SIV Psi RNA (WT)],Kd,SIV NC (SIVmne) [1],72 µM
GGUCUCUCUGGUUAGACCAGAUCUGAGCCUGGGAGCUCUCUGGCUAACUAGGGAACCCACUGCUUAAGCCUCAAUAAAGCUUGCCUUGAGUGCUCAAAGUAGUG [HIV-1 TARpolyA RNA],Kd,SIV NC (SIVmne) [1],82 µM
HIV-1 Psi RNA (WT),Kd,SIV NC (SIVmne) [1],3.9 µM
same,Kd,HIV-1 NC (HIV-1 NL4-3) [2],4 µM
dsDNA used for single-molecule stretching,Kd,SIV NC (SIVmne) [3],0.0055 µM
same,Kd,HIV-1 NC (HIV-1 NL4-3) [4],0.0042 µM
B1,Kd,HIV-1 NC [5],100 µM
B2,Kd,HIV-1 NC [6],120 µM
B3,Kd,HIV-1 NC [7],81 µM
